Here are results for five substances from PMC2603606.

Holding throughout (assay): crystal structure
The target in assay [1] is NITR11 (N50D) V region protein (channel catfish (Ictalurus punctatus)).
Assay [2] deals with NITR11 V region protein (novel immune-type receptor 11, Ig V domain) (channel catfish (Ictalurus punctatus)).
For assay [3], the target named is NITR10 V region protein (novel immune-type receptor 10, Ig V domain) (channel catfish (Ictalurus punctatus)).
For assay [4], the target named is NITR11 V domain and membrane proximal stalk region, disulfide-linked homodimer (channel catfish (Ictalurus punctatus)).
Assay [5] concerns the target NITR10 (D50N) V region protein (channel catfish (Ictalurus punctatus)).

In turn, “NITR11 (N50D) V region protein (domain or fragment)” gave a stoichiometry N in assay [1] of 2.
Take “NITR11 V region protein (novel immune-type receptor 11, Ig V domain) (domain or fragment)”: the stoichiometry N in assay [2] was 2.
For “NITR10 V region protein (novel immune-type receptor 10, Ig V domain) (domain or fragment)”, the stoichiometry N in assay [3] is 2.
As for “NITR11 V domain and membrane proximal stalk region, disulfide-linked homodimer (domain or fragment)”, the stoichiometry N in assay [4] amounted to 2.
For “NITR10 (D50N) V region protein (domain or fragment)”, the stoichiometry N in assay [5] came to 2.

Usually stoichiometry N stands for a count of units in the complex or per binding partner.
